Reference: publication PMC4293345
Read-outs that look alike come from different tables or passages of the source.

What was measured:
[1] = target: MBP-tagged NCS-1 (neuronal calcium sensor-1) (UniProt P62166); experiment: pull-down
[2] = target: MBP-tagged NCS-1 (neuronal calcium sensor-1) (UniProt P62166); experiment: pull-down; remark: listed apart in the source

Chain of MBP-tagged NCS-1 (neuronal calcium sensor-1) (P62166 whole entry): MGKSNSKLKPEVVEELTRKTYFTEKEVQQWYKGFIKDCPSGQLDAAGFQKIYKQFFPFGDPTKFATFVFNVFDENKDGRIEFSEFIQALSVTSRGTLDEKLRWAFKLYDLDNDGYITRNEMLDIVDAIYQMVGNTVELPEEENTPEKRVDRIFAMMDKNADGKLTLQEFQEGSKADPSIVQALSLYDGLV

relative binding (ratio of IMAA-GST to NCS-1-MBP) [1]: 0.24 | relative binding (ratio of IMAA-GST to NCS-1-MBP) [2]: 0.29
Substance: GST-tagged IM-AA mutant IQ domain of CaV2.1 (from UniProt P54282 1848-1964) (domain or fragment)
